Test results taken from paper PMC3053351.

What was measured:
Assay in all cases: flow cytometry on cells
[1] = target: Mamu-KIR3DL05*005 (rhesus macaque)
[2] = target: Mamu-KIR3DL05*003 (rhesus macaque)
[3] = target: Mamu-KIR3DL05*008 (rhesus macaque)
[4] = target: Mamu-KIR3DL05*010 (rhesus macaque)
[5] = target: Mamu-KIR3DL05*001 (rhesus macaque)
[6] = target: Mamu-KIR3DL05*004 (rhesus macaque)

## Mamu-A1*00201 tetramer folded with SIV Env_(788-795) RY8 (from UniProt P61769 21-119) (peptide-MHC)
[1]
  MFI of tetramer staining divided by MFI of HA staining: 0.03
[2]
  MFI of tetramer staining divided by MFI of HA staining: 0.06
[3]
  MFI of tetramer staining divided by MFI of HA staining: 0.07
[4]
  MFI of tetramer staining divided by MFI of HA staining: 0.07

## Mamu-A1*00201 tetramer folded with SIV Gag_(71-79) GY9 (from UniProt P61769 21-119) (peptide-MHC)
[1]
  MFI of tetramer staining divided by MFI of HA staining: 0.55
[2]
  MFI of tetramer staining divided by MFI of HA staining: 1.57
[5]
  MFI of tetramer staining divided by MFI of HA staining: 0.02
[3]
  MFI of tetramer staining divided by MFI of HA staining: 1.49
[4]
  MFI of tetramer staining divided by MFI of HA staining: 1.55
[6]
  MFI of tetramer staining divided by MFI of HA staining: 1.99

## Mamu-A1*00201 tetramer folded with SIV Nef_(159-167) YY9 (from UniProt P61769 21-119) (peptide-MHC)
[1]
  MFI of tetramer staining divided by MFI of HA staining: 0.01
[2]
  MFI of tetramer staining divided by MFI of HA staining: 0.03
[3]
  MFI of tetramer staining divided by MFI of HA staining: 0.03
[4]
  MFI of tetramer staining divided by MFI of HA staining: 0.03
[6]
  MFI of tetramer staining divided by MFI of HA staining: 0.13
